Experimental data as given in patent publication US9340584 (dated 2016).

The binders below were run against human serum albumin (human, UniProt P02768 25-609) (assay: SPR).

Kd [nM] | Binder
640 | RLuc-F3 (other) MVKQIESKTAFQEALDAAGDKLVVVDFSATGGTPGRRNRWSGPSKMIKPFFHSLSEKYSNVIFLEVDVDDAQDVASEAFCEFCFPFLPTFQFFKKGQKVGEFSGANKEKLEATINELV
520 | mutant TRX protein F3 (HSA binder, purified) (designed binder) MVKQIESKTAFQEALDAAGDKLVVVDFSATGGTPGRRNRWSGPSKMIKPFFHSLSEKYSNVIFLEVDVDDAQDVASEAFCEFCFPFLPTFQFFKKGQKVGEFSGANKEKLEATINELV
830 | mutant TRX protein E2 (HSA binder, purified) (designed binder) MVKQIESKTAFQEALDAAGDKLVVVDFSATKNEKRDVAEWSGPSKMIKPFFHSLSEKYSNVIFLEVDVDDAQDVASEAFGFFGFPVLPTFQFFKKGQKVGEFSGANKEKLEATINELV
1300 | RLuc-E2 (other) MVKQIESKTAFQEALDAAGDKLVVVDFSATKNEKRDVAEWSGPSKMIKPFFHSLSEKYSNVIFLEVDVDDAQDVASEAFGFFGFPVLPTFQFFKKGQKVGEFSGANKEKLEATINELV
2460 | RLuc-H6 (other) MVKQIESKTAFQEALDAAGDKLVVVDFSATDRKPWKTRGWSGPSKMIKPFFHSLSEKYSNVIFLEVDVDDAQDVASEAFGLFSFPLLPTFQFFKKGQKVGEFSGANKEKLEATINELV
870 | mutant TRX protein H6 (HSA binder, purified) (designed binder) MVKQIESKTAFQEALDAAGDKLVVVDFSATDRKPWKTRGWSGPSKMIKPFFHSLSEKYSNVIFLEVDVDDAQDVASEAFGLFSFPLLPTFQFFKKGQKVGEFSGANKEKLEATINELV
